Results as given in publication doi:10.1101/2022.06.17.496531 (bioRxiv, 2022).

Legend:
Assay in all cases: native MS
[1] = molecular target: long neurotoxin from N. melanoleuca (Naja melanoleuca, UniProt P0DQQ2)
[2] = molecular target: long neurotoxin 2 from N. melanoleuca (Naja melanoleuca, UniProt P01388)
[3] = molecular target: long neurotoxin 2 from O. hannah (Ophiophagus hannah, UniProt A8N285)
[4] = molecular target: long neurotoxin 4 from N. naja (Naja naja, UniProt P25672)

Measured: binding result

B1: 2554_01_D11 IgG (antibody, V domains shown)
VH: QVQLVQSGAEVKKPGSSVKVSCKASGGTFSSYAISWVRQAPGQGLEWMGGIIPIFGTANYAQKFQGRVTITADESTSTAYMELRSLRSDDTAVYYCARDNLGYCSGGSCYSDYYYYYMDVWGQGTLVTVSS
VL: NFMLTQPRSVSESPGKTVTISCTRSSGSIGSDYVHWYQQRPGSSPTTVIYEDNQRPSGVPDRFSGSIDSSSNSASLTISGLKTEDEADYYCQSYDRSNHEVVFGGGTKLTVL
binds: all assays above
